Results published in the supplement of paper PMC10567573.

B1: TMEM106C (parent)
chain: TVPEILVHNIVIFMRTSVKISYIG
B2: NCK2 (parent)
chain: YVERKNSLKKGSLVKNLKDTLGLG

Variants of: B1
Assay: protein stability index of a GFP-peptide fusion (GPS, HEK-293T) (PSI 1-6); higher = more stable
Details: c terminus: a fixed tail appended
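Further: lentivirally expressed fusions sorted by FACS into six bins by GFP to DsRed ratio, PSI derived from sequencing read proportions per bin multiplied by bin number.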

Protein stability index, by site and new letter:
M14: Y 2.6; E 3.79; Q 3.58; D 3.11
F13: L 4.27; T 2.99; R 2.3; E 2.27; A 3.07
I23: T 3.01; Y 3.25; R 2.81; C 2.41; A 3.15; F 3.86; S 3.05
I12: W 2.08; M 2.29; S 2.88
T16: R 2.5; W 2.85; S 2.54; A 1.5
I5: K 1.73; E 4.16; Y 2.58; H 4.38
I20: W 2.88; F 3.1; V 1.4; D 3.71; H 4.04; C 3.79
V2: G 2.98; W 2; Y 3.53; C 2.31
V18: G 2.88; Q 3.31
Y22: F 2.35; R 3.04; L 2.73; M 3.99; N 3.33; Q 3.85
I10: R 2.42; C 2.67; H 3.4; T 2.67
L6: W 2.8; S 2.77; N 2.24; Y 2.26; K 2.5
V7: Y 3.26; D 2.53; K 3.79; Q 3.02; N 2.83; P 3.59; T 2.15
G24: R 3.06; V 2.95; Y 2.61; M 3.57; T 2.06; H 2.84; F 3.89
P3: L 1.85; I 1.79; Q 2.68; C 2.32; S 3.98
T1: I 4.36; D 1.51; L 2.03; E 2.4
V11: T 3.11; Y 2.44; F 4.1; P 2.92
R15: H 2.94; C 2.91; K 3.46; A 2.33; P 2.47; D 2.57; G 3.23; N 3.2
E4: T 2.5; M 4.55; G 3.29; L 3.55; Y 2.81; K 2.94; N 2.99; Q 2.61; V 3.21; I 2.02
S21: H 2.81; E 3.24
N9: A 2.89; M 3.79; R 2.94; F 2.06; T 2.49
S17: R 3.66; N 3.88; A 4.19
K19: S 3.4
H8: Q 2.63; T 2.41

Variants of: B2
Assay: as above
Details: c terminus: a fixed tail appended

Protein stability index, by site and new letter:
L17: T 2.79; F 1.87; M 2.78; W 1.69; V 2.8; I 2.43; S 2.41; P 2.13; C 2.55; Y 2.73; G 2.88; H 2.34; R 2.58; N 2.77; D 2.92; A 2.62; Q 3.16; K 3; E 2.85
L23: A 2.96; N 2.9; Q 2.33; C 2.53; T 2.64; P 2.97; W 2.44; E 2.86; M 2.7; V 2.57; F 2.52; R 2.89; H 2.02; D 2.76; G 2.94; S 3.21; K 2.71; I 2.37; Y 1.94
D19: E 2.43; T 1.83; F 2.24; Y 1.49; H 1.47; G 1.92; M 2.6; A 2; N 2.84; C 2.11; P 1.95; Q 2.21; W 2.35; V 1.78; K 1.91; L 1.4; I 2.01; S 2.16
L21: E 2.74; V 2.25; R 1.98; Q 2.3; W 2.12; D 2.81; F 2.18; I 2.42; H 2.3; N 2.33; T 2.44; P 2.39; A 2.4; Y 2.41; M 2.64; S 2.51; G 2.49; C 2.71; K 2.32
L13: I 2.13; R 1.99; Y 2.52; W 2.04; G 2.41; M 2.22; P 3.05; S 2.54; Q 2.64; V 2.64; N 2.44; E 2.87; F 1.86; H 2.29; K 2.38; T 2.63
G24: E 3.21; Q 2.59; V 1.67; A 2.36; D 2.8; T 2.36; K 2.13; R 2.19; W 1.97; F 1.48; N 1.98; M 2.09; I 1.8; C 2.2; P 2.28; L 1.28; H 2.43; Y 1.67; S 2.58
N16: M 1.3; I 2.18; F 2.69; Y 1.89; H 2.28; Q 1.97; C 2.1; R 1.98; E 2.73; L 2.14; W 1.68; D 2.29; S 2.16; G 2.3; P 2.61; V 1.83; K 2.04; A 2.33; T 2.41
K15: G 2.49; F 1.69; P 1.99; L 2.36; R 1.81; N 2.41; V 1.94; A 2.09; C 2.12; M 2.47; I 1.77; E 2.81; Y 1.91; S 2.26; Q 2; D 2.7; W 1.98; T 2.56; H 2.23
G22: R 1.97; Y 2.33; M 2.23; C 2.01; P 2.44; N 2.46; K 2.09; I 1.9; D 2.21; F 2.86; L 1.51; T 2.37; W 2.56; S 2.13; V 1.97; E 2.34; Q 2.31; H 2.01
V14: K 2.25; M 2.46; T 2.66; E 2.16; R 2.6; H 1.84; Q 2.74; S 2.07; P 2.3; L 2.31; G 2.04; C 2.08; Y 1.98; A 2.53; F 1.96; W 1.89; I 2.35; D 2.84; N 2.44
T20: R 1.97; Q 2.64; C 1.82; P 2.21; D 2.3; G 2.45; A 2.33; E 2.17; M 2; L 2.07; N 2.62; K 2.37; S 2.66; I 3.27; F 1.75; V 1.97; H 1.75; Y 1.88
K18: L 2.08; N 2.3; T 2.65; Q 2.48; H 2.6; D 2.39; F 1.33; R 2.46; I 2.84; S 2.07; G 1.84; E 2.46; C 2.94; A 2.25; P 2.56; M 1.72; Y 2.41; W 1.8; V 2.42
